Measurements reported in the DeepSol protein solubility set.

test: soluble on expression in E. coli; label from the status in PepcDB or PDB records

For “MIAITGATGQLGHYIIESLMKTVPASQIVAIVRNPAKAQALAAQGITVRQADYSDEAALTSALQGVEKLLLISSSEVGQRAPQHRNVINAAKAAGVKFIAYTSLLHADTSPLGLADEHIETEKMLADSGIVYTLLRNGWYSENYLASAPAALEHGVFIGAAGDGKIASATRADYATAAARVISEAGHEGKVYELAGDSAWTLTQLAAELTKQSGKQVTYQNLSEADFAAALKSVGLPDGLADMLADSDVGASKGGLFDNSKTLSKLIGCPTTTLAESVSHLFNVNN”, which “soluble on expression in E. coli” value is on record?
The value was “not soluble”.

With “MTKNLLVELGLEELPAYVVTPSEKQLGEKMAAFLKGKRLSFEAIQTFSTPRRLAVRVTGLADKQSDLTEDFKGPAKKIALDSDGNFTKAAQGFVRGKGLTVEDIEFREIKGEEYVYVTKEEIGQAVEAIVPGIVDVLKSLTFPVSMHWAGNSFEYIRPVHTLTVLLDEQEFDLDFLDIKGSRVSRGHRFLGQETKIQSALSYEEDLRKQFVIADPCEREQMIVDQIKEIEAKHGVRIEIDADLLNEVLNLVEYPTAFMGSFDAKYLEVPEEVLVTSMKEHQRYFVVRDQDGKLLPNFISVRNGNAERLKNVIKGNEKVLVARLEDGEFFWREDQKLVISDLVEKLNNVTFHEKIGSLREHMIRTGQITVLLAEKASLSVDETVDLARAAAIYKFDLLTGMVGEFDELQGIMGEKYTLLAGETPAVAAAIREHYMPTSAEGELPESKVGAVLAIADKLDTILSFFSVGLIPSGSNDPYALRRATQGVVRILDAFGWHIAMDELIDSLYALKFDSLTYENKAEVMDFIKARVDKMMGSTPKDIKEAVLAGSNFV” as the sequence, how does the “soluble on expression in E. coli” value read?
Its value is “not soluble”.

For “MSSHFVDWLIAHGYEQDAFDRPDVGPAGSFGGKTRSGDPVEKEPVIFIHGSGDTALFTQQPLATGFSRSIQYFLEQNYTEAELYATTWGDTWGSGSMLDTYSTIHTCGNLIYLRRFLEAVIGYTGAKKVDIIAHSVGVPLMRKVVKGGTLIGTDGNCTLGPPLGAKVDTFLGIAGPNFGLCVCQLAQTVPAWCNALDGLYPGYTCQDQLWCGYTSGSCKQENYSNLLQKTNDDPNREGDHVYAMWSDVDEVLLNRGMVWGKPTARIPGMNGRWISDRNGHVAMKDLTELRQFEAIVHHSI”, which “soluble on expression in E. coli” value is on record?
Its value is “not soluble”.

For “MGSDKIHHHHHHMIKLIATDIDGTLVKDGSLLIDPEYMSVIDRLIDKGIIFVVCSGRQFSSEFKLFAPIKHKLLYITDGGTVVRTPKEILKTYPMDEDIWKGMCRMVRDELPACDYFAATPDFCFAEDGGSPIFHLLRDSYGFEMREVDDITRLDRNDIIKFTVFHPDKCEELCTPVFIPAWNKKAHLAAAGKEWVDCNAKGVSKWTALSYLIDRFDLLPDEVCCFGDNLNDIEMLQNAGISYAVSNARQEVIAAAKHTCAPYWENGVLSVLKSFL”, which “soluble on expression in E. coli” value is on record?
The value was “not soluble”.

With “MRGSHHHHHHGSELSKSSIVDKVELDHTTLYQGEMTSIKVSFSDKENQKIKPGDTITLTLPDALVGMTENDSSPRKINLNGLGEVFIYKDHVVATFNEKVESLHNVNGHFSFGIKTLITNSSQPNVIETDFGTATATQRLTIEGVTNTETGQIERDYPFFYKVGDLAGESNQVRWFLNVNLNKSDVTEDISIADRQGSGQQLNKESFTFDIVNDKETKYISLAEFEQQGYGKIDFVTDNDFNLRFYRDKARFTSFIVRYTSTITEAGQHQATFENSYDINYQLNNQDATNEKNTSQVKNVFVEGEASGNQNVEMPTEESLDIPLETIDEWEPKTPTSEQATETSEKTD” as the sequence, how does the “soluble on expression in E. coli” value read?
Its value is “soluble”.

For “GPGSMSDVDDLIEELFPKKEGGRAPPEGKGGAACEPPASQSNWDDTDEANSEAETTTRNRGTSVSLEAAASTTANVGDGRGEDFDDSDESVEETVMGGRHTVPFPPTPGNMSMACNSKCFVTNVGSGELRHPSVAQLLLTGEGKYDKCSSNEQLLLRKGAFHALKADAGNGCTDKTADEDGRKGGCPFILCRKCNYTVIRLQDAEWDDEEGKMDLYLTVRNFYPDWSRLASSLPVGQMRRGEQNTVLKTCPDSAAYCCQCSWLTVKCAQEVIDTRVTDHTKFVGKELTCCFATQLPLISGEKRRPPLWVCGGHVPKH”, which “soluble on expression in E. coli” value is on record?
Its value is “soluble”.

With “NGEEHEQTHRAIFRFVPRHEDELELEVDDPLLVELQAEDYWYEAYNMRTGARGVFPAYYAIEVTKEPEHMA” as the sequence, how does the “soluble on expression in E. coli” value read?
The value was “soluble”.

With “MSAANPTRDDFASLLEESFTTGHSGEGQVVKGTITAIEKDMAIIDVGLKVEGRVPLKEFGVKGKDTTLKVGDTVEVYVERIENALGEAMLSREKARREESWVRLEEKFTKGERVEGVIFNQVKGGFTVDLDGAVAFLPRSQVDIRPIRDVSPLMHNPQPFEILKMDRRRGNIVVSRRTVLEESRAEQRSEIVQNLEEGQVVEGVVKNITDYGAFVDLGGIDGLLHVTDMAWRRVNHPTEILNIGQTVKVQIIRINQETHRISLGMKQLESDPWSEIGTKFPIGKKIKGTVTNITDYGAFVELEPGIEGLIHVSEMSWTKKNVHPGKILSTTQEVDVVVLEVDPAKRRISLGLKQTLENPWEAFARNHPVGSQVEGEVKNKTEFGLFIGLEGDVDGMVHLSDLDWTRPGEQVIEEYNRGDMVKAQVLDVDIEKERISLGIKQLARDTVGEAATSGELRKNAVVTCEVIGVKDGGLEVRLVDSGIETFIKRSDLSRDRDEQRPERFTVGQKVDARVIAFDKKTRKLQVSIKALEIAEEKEAVAQYGSTDSGASLGDILGAALKKQGNLEHHHHHH” as the sequence, how does the “soluble on expression in E. coli” value read?
The value was “soluble”.

Which “soluble on expression in E. coli” value does the source give for “MQETRLMENEYSVNLPTKFWYRGKTYNGFINLVNIFRATMILGTPGSGKSYAIVNQFIKQTIEKSYALYIYDFKFDDLSVIAYNHLLKYRYRYKVPPKFYVINFDNPRKSHRCNPLAPELMTDISDAYESSYTIMLNLNKSWVQKQGDFFVESPIVLFTAIIWFLKIYEGGKFCTFPHAIELLNKRYEDVFTILTSYPDLENYLSPFIDAWKGGASEQLQGQIASAKIPLSRLISPQLYWVMSGSDFTLDINNPKEPKVLCVGNNPDRISIYGAALGLYNSRIVKLINKKKQLKSCVIIDELPTIFFKGLDNLIATARSNKVAVVLGFQDFSQLKRDYGDKEAAVIMSTVGNVFSGQVVGETAKTLSERFGKILQKRESMSINRNDTSTSINTQLDSLIPASKISTLSQGMFVGAVADNFGETIEQKIFHAQIVVDNEAVQKETAAYQPIPEISSFLDENGNDTMEQQIQANYRQIKQDIVELVENELIRIENDPELKYLLNNEM” here?
The value was “not soluble”.

Which “soluble on expression in E. coli” value does the source give for “MNPQRGILFACLLVVVTNRGATAQHARPPVGVTGDVTGARIDPPSDKCENPSVNIATTEAPKIVTTAEPAANSTKPAQPNSATGPVVLLTIVAVTMN” here?
Its value is “not soluble”.

With “MAHHHHHHMVFDVNGDFVENEQQFIEAARKSINLTIKLQNTSGMSELIARVLEDDDRRASGAISTSALDFDELLRTTPRFNFLSGDHPIFRRYNKRLAQQRQAAALIAQRTAEAELQRQAEIKERLRKALEEEAAVQKKKEQEKAELQRMRAAQEPARFVPEEPFLKIIKDESSFGQVERELKKPETAAEPKVESKAEGAASEAITNTATGTSTTLSNDVAATISAEELLVLVGVPTETMETTTPALEDLAEAIALPSSENTATYVALPAEEYTLCSGERVVSVIKKRSGPIPAPPPGTPPVINKAAASRLSEPVKRVKPVEKMVRNCTPSNEQPYKSRHRSRSPRSRRRSERDHSSKECSRRHRRDEPSSHRHHKNSRDSKHRR” as the sequence, how does the “soluble on expression in E. coli” value read?
The value was “not soluble”.

With “MGSDKIHHHHHHMSRVACAYIIRKATGEHECCETLEEHVQRSLEVWLGRLKKCYSSAVNRIIYSQGSQTLASVLGDPVAVAIVLHDIGKAVPAYQKKRIMRGRVQYRHELVSGALSLLAIEKAADMAGIGRNDRGLYVFEVPLAVMMHHESISMGVLAGELGERFVTLSVASLMLEDYYDGELWGLERLARTVKNMGAVGDAVVDVLKILSGSPPSRKEVLIALGRLKAYSLSGDTLSRLSARARVAGILHPLVVADSIAANEGRKRCNGDGGTWIVKRALGRDSQEPAEPCLS” as the sequence, how does the “soluble on expression in E. coli” value read?
The value was “not soluble”.

Which “soluble on expression in E. coli” value does the source give for “MGSSHHHHHHSSGLVPRGSHMSSEFIEAGAADRVRILSEALPYLQQFAGRTVVVKYGGAAMKQEELKEAVMRDIVFLACVGMRPVVVHGGGPEINAWLGRVGIEPQFHNGLRVTDADTMEVVEMVLVGRVNKDIVSRINTTGGRAVGFCGTDGRLVLARPHDQEGIGFVGEVNSVNSEVIEPLLERGYIPVISSVAADENGQSFNINADTVAGEIAAALNAEKLILLTDTRGILEDPKRPESLIPRLNIPQSRELIAQGIVGGGMIPKVDCCIRSLAQGVRAAHIIDGRIPHALLLEIFTDAGIGTMIVGSGYHEAHQPWQ” here?
Its value is “soluble”.

For “MSLAAHYLDFERPIADLESKIEELSRLSETAGPGAFDTEIQALRDRAQELRKEAYANLDAWQKTMVARHPQRPHLRDYVAGLIDEFVELRGDRKFADDQAIVGGLGRFRGQPVVVMGHEKGHDTTTRLKHNFGMARPEGYRKAVRLMDMAERFNLPVITFVDTAGAYPGLGAEERGQAEAIARSTERCLTLGVPMVATIVGEGGSGGAIALAGANRVLILEHSIYSVISPEGAASILWRDGARAKDAATQMRITAQDLIKLGIVDRIVEEPAGGAHSDTEAAIQAVGDAVEDELKAMAAMSPAELKKQRSDRFYAIGREGHHHHHH”, which “soluble on expression in E. coli” value is on record?
The value was “soluble”.

For “MTKKYSRFLPSEKSFNIDNFPYYWVTQVHSQYVHNIDNVLKRYGLDNSRRRILLALNIKQNASVSELSEMIISKMSTTTKIVYRLKDEGFVNTYSCENDARITRVNLTEQGKEMIHKINSLTGAVLEQSFEGLTPLQIEKMIDGLKIIFKNLSS”, which “soluble on expression in E. coli” value is on record?
Its value is “not soluble”.

For “MGPLPRKGNMKQKITDYLDEIYGGTFTATHLQKLVTRLESAKRLITQRRKKHWDESDVVLITYADQFHSNDLKPLPTFNQFYHQWLQSIFSHVHLLPFYPWSSDDGFSVIDYHQVASEAGEWQDIQQLGECSHLMFDFVCNHMSAKSEWFKNYLQQHPGFEDFFIAVDPQTDLSAVTRPRALPLLTPFQMRDHSTRHLWTTFSDDQIDLNYRSPEVLLAMVDVLLCYLAKGAEYVRLDAVGFMWKEPGTSCIHLEKTHLIIKLLRSIIDNVAPGTVIITETNVPHKDNIAYFGAGDDEAHMVYQFSLPPLVLHAVQKQNVEALCAWAQNLTLPSSNTTWFNFLASHDGIGLNPLRGLLPESEILELVEALQQEGALVNWKNNPDGTRSPYEINVTYMDALSRRESSDEERCARFILAHAILLSFPGVPAIYIQSILGSRNDYAGVEKLGYNRAINRKKYHSKEITRELNDEATLRHAVYHELSRLITLRRSHNEFHPDNNFTIDTINSSVMRIPRSNADGNCLTGLFNVSKNIQHVNITNLHGRDLISEVDILGNEITLRPWQVMWIK”, which “soluble on expression in E. coli” value is on record?
The value was “not soluble”.

For “MGSDKIHHHHHHMFRRIREDLIKNHMEGPQGFRSMLAGWVECGFCTIVEDEIRFWNGSRIYLCHCKDEKDRFKYQGAEIHVLLIDELTHFTEVIYRFLRNRVRMVGIKLPAKYAGRFPRILCGANPGGIGHQFVKATFIDGATAMKVYTTEASEGGMRRQFIPAQLEDNPSMNDNDPGYENRLMGLGSESLVRAMRYGDWDVVEGAYFDNFERRRHVVKPFTIPDHWIRFRAGDWGSAKPFAFGWYVVASDDTIIAPGVVVPRGALVKYREWYGVKIDKSGKFLPDVGLKLHAEAVGAGVRQRDYDDIIVYGVLDPAAFSQDGGPSIAERMTRGTTGSNGSTFRRADNKRTAGRGAMGGWDQLRGRLTGDGDGRPMLFFFDTCIHTIRTLPALQHDEANPEDLDTKQEDHAADETRYACMSRPWIAKSKVPAPQVPEGHIALPGAPDEAAGNRRIRI”, which “soluble on expression in E. coli” value is on record?
Its value is “not soluble”.

With “MSLYHYFRPAQRSVFGDLMRDMAQMERQFTPVCRGSPSESSEIVNNDQKFAINLNVSQFKPEDLKINLDGHTLSIQGEQELKTEHGYSKKSFSRVILLPEDVDVGAVASNLSEDGKLSIEAPKKEAIQGRSIPIQQAPVEQKTSE” as the sequence, how does the “soluble on expression in E. coli” value read?
The value was “not soluble”.
